This is an account of results in patent publication US20220195015A1 (published 2022).

This experiment addresses SARS-CoV-2 spike protein receptor binding domain (RBD) (SARS-CoV-2, UniProt P0DTC2 319-539). As to the kind of experiment: ELISA on coated RBD protein.

B1: C057 (antibody, V domains shown)
VH: QVQLVQSGAEVKRPGASVKLSCKASGYIFTDYSIHWVRQAPGQGLEWMGWVNPNSGGGNSAQKFMDWVTMARDTSITTVYMELSRLRSDDTAVYYCARGPLFHKLVYDSWSGYHDGFDIWGQGTMVTVSS
VL: QSALTQPASVSGSPGQSITISCTGTSSDVGAYKFVSWYQQHPGKAPQLIIYEVSNRPSGVSNRFSGSKSGNTASLTISGLQAEDEADYYCSSYTNASTWVFGGGTELTVL
For the molecule B1, the EC50 was 2.31 ng/mL.

B2: C058 (antibody, V domains shown)
VH: QVQLVQSGAEVKKPGASVKVSCKASGYIFTDYSMHWVRQAPGQGLEWIGWVNPNSGGTNYAQKFQGWVTMARDTSITTVYMELSRLKSDDTAVYFCARGPLFHRLVYDFWSGYHDGFDMWGQGTMVTVSS
VL: QSALTQPASVSGSPGQSITISCTGTSSDVGGYKFVSWYQQHPGKAPKLMIYEVSNRPSGVSNRFSGSKSGNTASLTISGLQAEDEADYYCNSYTSSSTWVFGGGTKLTVL
B2: the response was half-maximal at 2.28 ng/mL (EC50).

B3: C069 (antibody, V domains shown)
VH: QVQLVQSGAEVKKPGSSVNVSCKASGGTFSTYAIHWVRQAPGQGLEWMGGIIPLFHTANYAQKFQGRVTITADESTSTAYMELSSLRSEDTAMYYCAINTQWDLVPRWGRGTLVTVSS
VL: EIVLTQSPGTLSLAPGERATLSCRASQSVNSNYLAWYQQKPGQAPRLLIYGASSRATGIPDRFSGSGSGTDFTLTISRLEPEDFAVYYCQQYGFSLYSFGQGTKLEIK
As to B3, the EC50 came out at 381 ng/mL.

B4: C053 (antibody, V domains shown)
VH: EVQLVESGGGLIQPGGSLRLSCAASGFIVSNNYMSWVRQAPGKGLDWVSVIYSGGTTYYADSVKGRFTISRDNSKNTLYLQMNSLRAEDTAVYYCAREGDVEGYHDSWSGYSRDRYYFDYWGQGTLVTVSS
VL: QSALTQPASVSGSPGQSITISCTGSSSDVGGYNFVSWYQQHPGRAPKLMIYDVSNRPSGVSNRFSGSKSGNTASLTISGLQVEDEADYYCSSYTNNNTRVFGTGTKVTVL
B4: the midpoint of the response, the EC50, lay at 1.53 ng/mL.

B5: C063 (antibody, V domains shown)
VH: EVQLVQSGAEVKKPGDSLKISCKASGYSFTRYWIGWVRQMPGKGLDWMGIIYPGDSDTRYSSSFQGQVTISADKSISTAYLQWSSLKASDTSLYYCVRRASSTNFEFWGQGTLVTVSS
VL: SYELTQPPSVSVAPGQTATITCGGNNIGSKTVHWYQQKPGQAPVVVVYDDSDRPSGIPERFSGSKSGSTATLTITRVEAGDEADYYCQVWDSTSDHYVFGTGTKVAVI
The molecule B5 came in with an EC50 of 414 ng/mL.

B6: C068 (antibody, V domains shown)
VH: QVQLVESGGGVVQPGRSLRLSCVASGFSFSTYGMHWVRQAPGKGLEWVALIWSDGSNKYYGDAAEGRFTISRDNSNNTLYLQMNNLRAEDTALYYCARDHSSSSFVYYYYMDVWGKGTTVTVSS
VL: QSALTQPRSVSGSPGQSVTISCTGTSSDIGGYNYVSWYQQHPDKAPKFIIFDVSKRPSGVPDRFSGSKSGNTASLTISGLQAEDEADYYCCSYAGPYPYVFGTGTKVTVL
Take B6: the EC50 stood at 5.46 ng/mL.

B7: C067 (antibody, V domains shown)
VH: VQLVESGGGVVQPGRSLRLSCAASGFSFRIFGMNWVRQAPGKGLDWVAGISHDGSDKYFADSVKGRFTISRDNSKNTLYLQMNSLRADDTAVYYCARDMEVDYYDRSGHYHVFHAFDIWGQGTMVTVSS
VL: DIVMTQSPDSLAVSLGARATINCKSSQSILYSSDNKSSLAWYQQKPGHPPKLLIYWASTRESGVPDRFSGSESGTDFTLTISNLQGEDVAVYYCQQYYSIPRSFGQGTKLEIK
In turn, B7 showed an EC50 of 6.98 ng/mL.

B8: C059 (antibody, V domains shown)
VH: QVQLVQSGAEVKKPGASIKVSCKASGYTFTDYSMHWVRQAPGQGLEWMGWINPNSGGTKYAQKFQGWVTMTRDMSITTVYMELTRLRSDATAVFYCARGPLFHKLVYDSWTGYHDGFDIWGQGTMVTVSS
VL: QSALTQPASVSGSPGQSITISCTGTSSDVGGYNYVSWYQHYPGKAPKLMIYEVTHRPSGVSNRFSGSKSGNTASLTISGLQAEDEADYYCSSSTNSSTWVFGGGTKMTVL
As for B8, the 50% effective concentration (EC50) was 1.88 ng/mL.

B9: C055 (antibody, V domains shown)
VH: EVQLVESGGGLVQPGGSLRLSCAASGFSVSTKYMTWVRQAPGKGLEWVSVLYSGRTDYYADSVKGRFTISRDSSKNILYLQMSSLRVEDTGFYYCARDSSEVRDHPGHPGRSVGAFDIWSQGTMVTVSS
VL: QSALTQPASVSGSPGQSIAISCTGTSNDVGSYTLVSWYQQYPGKAPKLLIFEDSQRSSGISNRFSGSKSGNTASLTISGLRGEDEADYYCCSYAGSHTFVFGGGTKVTVL
Molecule B9 yielded a concentration giving a half-maximal response (EC50) of 1.25 ng/mL.

B10: C081 (antibody, V domains shown)
VH: EVQLVESGGGLVKPGGSLRLSCAASGFTFSSAWMSWVRQAPGKGLEWVGRIKTKTDGGTKDYAAPVKGRFTISRDDSKNTLYLQMNSLKTEDTAVYYCTTTNDYGDYSPAYWGQGTLVTVSS
VL: not shown
With B10, the EC50 amounted to 12.5 ng/mL.

B11: C066 (antibody, V domains shown)
VH: EVQLVESGGGLIQPGGSLRLSCAASGLLVSRNYMTWVRQAPGKGLEWVSVIYSGGSTFYADSVRGRFTISRDNSKNTLYLQMDSLRAEDTAVYYCARDVGDYYGMDVWGQGTTVTVSS
VL: DIQLTQSPAFLSASVGDRVTITCRASQGMSNYLAWYQQKPGKAPNLLIYTASTLQSGVPSRFSGSGSGTEFTLTISSLQPEDFATYYCQLLNSYPQLTFGGGTKVEIK
The molecule B11 came in with a 50% effective concentration (EC50) of 4.2 ng/mL.

B12: C060 (antibody, V domains shown)
VH: EVQLVESGGGLVQPGGSQRLSCAASGFTVSSNYMSWIRQAPGKGLEWVSVIYSGGSAYYVDSVKGRFTISRDNSKNTLYLQMNSLRPEDTAVYYCARIANYMDVWGKGTTVTVSS
VL: EIVMTQSPATLSVSPGERATLSCRASQSVSSHLAWYQQKPGQAPRLLIYGASTRATGIPTRFSGSGSGTEFTLTISSLQSEDFAVYYCQQYNNWPPLTFGGGTKVEIK
B12 yielded an EC50 of 43.5 ng/mL.

B13: C064 (antibody, V domains shown)
VH: EVQLLESGGDLVQPGGSLRLSCAASGFTFSNYAMSWVRQAPGKGLEWVSAISGSGGNTYYADSVKGRFTISRDNSKNTLYLQMNSLRAEDTAVYYCAKAVHYGGNSDRRFSEPSAPFDYWGQGTLVTVSS
VL: QSALTQPASVSGSPGQSITISCTGTSSDVGSYNLVSWYQQHPGKAPKLMIYEGSKRPSGVSNRFSGSKSGNTASLTISGLQAEDEADYYCCSYAGSSTPYVFGTGTKVTVL
In turn, B13 had a half-maximal effective concentration (EC50) of 363 ng/mL.

B14: C065 (antibody, V domains shown)
VH: QVQLQESGPGLVKPSQTLSLTCTVSGGSISSSNYYWSWIRQHPGKGLEWIGYIDYSGGTYYNPSLKSRVTISVDTSKNQFSLKLSSVTAADTAVYYCARVSTTVTTYLVGGFDIWGQGTMVTVSS
VL: IRMTQSPSSLSASVGDRVTITCQASQDITNYLNWYQQKPGKAPKLLLYDASNLETGVPSRFSGSGSGTDFTFTISSLQPEDIATYYCQQYDNLPWTFGQGTKVEIK
B14 had an EC50 of 29.1 ng/mL.

B15: C062 (antibody, V domains shown)
VH: EVQLVESGGGLVKPGGSLRLTCAASGFTFSTYSMNWVRQAPGKGLEWVSSISSSSSYIYYADSVKGRFTISRDNAKNSLYLQMNSLRAEDTAVYYCARERGYYGGKTPPFLGGQGTLVTVSS
VL: NFMLTQPHSVSESPGKTVTISCTGSSGSIASNYVQWYQQRPGSAPTTVIYEDNQRPSGVPDRFSGSIDSSSNSASLTISGLKTEDEADYYCQSYDSSNYWVFGGGTKLTVL
Regarding B15, the EC50 was 4.69 ng/mL.
